± gives the uncertainty stated by the source.
Assay: amyloid nucleation score (Sup35N fusion, yeast selection) (log enrichment); library NNK3; higher = more nucleation; inactive = no reads after selection
Summary of the method: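 For the nucleation score, DiMSum gave the log enrichment of output over input reads, centred on the mode score of non-aggregating sequences. Psi-negative yeast expressing Sup35N fused to peptides of 20 random codons were induced with 100 μM copper sulfate for 24 hours and grown 7 days at 30°C on medium lacking adenine and uracil. Input and output plasmid inserts were Illumina-sequenced, and sequences with under 100 input reads were excluded.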

| Substance | amyloid nucleation score |
| --- | --- |
| QQIFRDNCPVGSRFIFLSR | inactive |
| SVIILSCND | inactive |
| RSYIKGIFCLSAMRFQCSMS | -0.404 ± 0.78 |
| SYLNVLPNFLRLTAICVVFR | inactive |
| PKIVYLLAFIVKIELVILTD | inactive |
| AVITSRVRWSLRNRRANISM | inactive |
| PSGHV | inactive |
| NSIILFWRLSRGVYSFLPHK | inactive |
| RGTSSQ | inactive |
| VTPSTGRSIVVTPGTYIARV | inactive |
| WSQEATTM | inactive |
| FARVSVESRGGNVTFACLCI | 1.73 ± 0.12 |
| MYFYYYGSRYYNNSDCLLSS | inactive |
| FYHDMIWTILLDYTRRFHKL | inactive |
| GGENLTFLRSAFCSNWA | inactive |
| MYLFRENGHQSGNVY | inactive |
| SLSWHK | inactive |
| FSYLLYRRNDTCPQALRLRR | inactive |
| GVYHIQPCMRCRLHKGGSDS | inactive |
| ALGCPGSQNLYFGSGSPAWS | inactive |
| SDGLLLPRSRNVATVEMGDL | inactive |
| IGEILIVFALTRNTVVGYGF | inactive |
| GRIFRLPCYVRLVLVNCRYG | inactive |
| IPTSQAEFCCFSGAKHFQIV | inactive |

| Substance | amyloid nucleation score |
| --- | --- |
| QTGCIPNER | 1.05 ± 0.23 |
| WCVASILRQFPLCYFITQNP | inactive |
| LWLCSYNATGSFVAKD | -0.246 ± 0.5 |
| VQCRDVLGNDVFCVYHLGVE | inactive |
| VFVNSYS | inactive |
| FYRSLGMYRDWTMSIFGKYL | inactive |
| TRFARA | inactive |
| TYYADTLAFNSTS | inactive |
| FRSKLTW | inactive |
| HRGYAAFFS | inactive |
| YVYESFGWVSGNFKVWF | inactive |
| LSLSSFCF | 1.3 ± 0.17 |
| LVAWCDIPNCCANVYCNSVD | 1.85 ± 0.077 |
| GRSMLMLRTYNM | -0.056 ± 0.78 |
| GVVSMVYINKWTRFWVPRPS | inactive |
| LHMIVALSSSSSMTYDVRVV | inactive |
| SMCNTSLYWLDHGADLLRSL | inactive |
| FISSLSRSFL | inactive |
| VGRVRQVAQLDMGPDMYDRV | inactive |
| YGRRKYSWAVWICKHIGAYG | inactive |
| EYLLSSMRLSVILSAWYARC | inactive |
| HGLRALLRSLSLYLVLCFTV | inactive |
| VTCVVVVGVHVRRHGFQEYV | inactive |
| CCSKFHAQN | inactive |

| Substance | amyloid nucleation score |
| --- | --- |
| FMKCDTTSAAGCRRSSSRDK | inactive |
| CDVHL | inactive |
| FTRTREMENCNFLNFYRYMV | inactive |
| RASKRLCWSG | inactive |
| SVVLIMKICTVEGYDPQLLF | inactive |
| VMSLTR | inactive |
| DLWAIGWGPFRVCSLLPWPL | inactive |
| LVLSWWYMMFFRFDGV | inactive |
| RHVVGCSYNVIGCFYVVLRI | 1.84 ± 0.083 |
| VCSSGQKSLKMLRIFHIFNP | -0.352 ± 0.87 |
| AYPARLTIASEFKIMAHYGM | 1.36 ± 0.15 |
| CMLNRNFWVVYSHVGRRRL | inactive |
| GWNVWQGMNKNFGTYFSR | inactive |
| RRNMYLL | -1.31 ± 2.5 |
| LRCGSSSDELCMREWFRVDL | inactive |
| SWYSMGNP | 1.04 ± 0.14 |
| WTTNLVNAYLDRHVHNLMPL | inactive |
| VYYACGMDVKNFWELRLWGD | 1.99 ± 0.063 |
| STDLVIFMSTLPVCSCYCGQ | 1.72 ± 0.08 |
| SWLKVCRQGYGDSSIRYRLL | inactive |
| SRIGFPICLRRGYVNQDCNG | inactive |
| DCCKFFLKDSRSRSFSWSIY | 1.66 ± 0.08 |
| TTFSGETYEYYMFMCW | 0.532 ± 0.17 |
| CDIHLRIY | inactive |

| Substance | amyloid nucleation score |
| --- | --- |
| QCQFYTSMMSAR | inactive |
| LYWFCCLVIYVGPLVHPVEL | inactive |
| GMVNVARRKMSGLR | 1.09 ± 0.16 |
| LSGELCSW | inactive |
| ENSGWSKRVFSSFFMIAMMY | inactive |
| VQGLGGNWW | inactive |
| SICSEVGSSQLVVL | inactive |
| TWDLY | inactive |
| PCRKMIQKIVQM | inactive |
| KAARTSQGNARCVYVKGVSN | inactive |
| LPLSFSL | inactive |
| MTQVQCLTSVNWKVTHVLHR | 1.29 ± 0.15 |
| YEPSNCKLVSMYVFCRLKLA | -0.574 ± 1 |
| SDFSVRVLDNWIHNMTGRIG | inactive |
| GVKYVDNIGLRGWFFCRHAV | inactive |
| SAARSNPW | 0.311 ± 0.31 |
| VHAMWKSICNTSCML | 2.53 ± 0.052 |
| NNCVITFFEFSTWGCLYLKF | inactive |
| LNLDCTS | inactive |
| SELRC | 0.114 ± 0.44 |
| DIHVKNCVVCMYSG | 2.44 ± 0.057 |
| VMAELVSVKVAQVIVR | inactive |
| CLFGLGVEAKVFIYQGDDQS | inactive |
| SGMVCVSLVG | inactive |

| Substance | amyloid nucleation score |
| --- | --- |
| LDNVR | inactive |
| IEVGYITWKSARVWATNSSH | inactive |
| NTQNLNRVVCLGL | inactive |
| VNDVLGNEPFRVVGEEEIPG | inactive |
| FCRQCNIVLFDQSVSL | 1.87 ± 0.11 |
| IWASRS | inactive |
| LLNTRGSRVMLLGHRLFDN | inactive |
| TRFVTRNDMYLRYILVCRVA | inactive |
| YSNSLRRTSPQEHS | inactive |
| TCLRG | inactive |
| NIARRTIKLTPFFSIFCVYS | 3.2 ± 0.055 |
| RRYHHFRRECWLVERRIVVF | inactive |
| CFYMTSSDYQEGNG | inactive |
| VLLKRL | inactive |
| YCIRVVVWYNRHYGYSLS | inactive |
| ILRLSPTFGRQSYSVKVGLK | inactive |
| LYRKWRE | inactive |
| LITCI | inactive |
| GNIFRRYTVPSDANTKTWIY | inactive |
| WSFCVSTREGSSNNFSRCGK | inactive |
| KQFRVWFCYFL | 0.565 ± 0.14 |
| LNYFR | inactive |
| PLRVRNQYRRLMISANQPDW | inactive |
| TTSNMGVVHYL | inactive |

| Substance | amyloid nucleation score |
| --- | --- |
| IIWLWGNNGKYTMGFLGIGG | inactive |
| IIISSFSDWCYFGRDDSCRM | -0.36 ± 0.63 |
| YSFECMSH | inactive |
| CRGTWDNDAVGRVDRNSRKS | inactive |
| VEFSVFGERNVIYGVLSWRS | 1.12 ± 0.12 |
| RSDMGSHFHAELLKYEMATM | inactive |
| CQIEILLPLDVLY | 1.06 ± 0.09 |
| VKREWSAI | inactive |
| LYPFYFYA | inactive |
| KISAIVSYPAYVIIVHRLWH | inactive |
| CRVEVAICHRPLCSKVTLDG | inactive |
| FGTHFIESSNVNNNTPVVSP | inactive |
| ICGRTYVRVT | -0.775 ± 1.1 |
| DCFLLSTIVALYRDYRYIGT | inactive |
| NCWVNKIDVFLAESSMQCKA | inactive |
| QYTFVGDLMVDLITKTVMLM | inactive |
| NHVTVYVI | 0.555 ± 0.29 |
| HCYWLVGSWRYFTALFEGGL | inactive |
| STIFTVAVFDCNEHLARSKS | inactive |
| SIVSPIMRLFCFGLRAYKAV | inactive |
| LSLKRHLYLKVDASLTCVRT | inactive |
| LASSQLIYRTSRTCPTLLPL | 1.3 ± 0.1 |
| GLPNLASYSPPPINAKYIGD | inactive |
| RVFSTFILYGETKFFLVPET | 0.677 ± 0.23 |

| Substance | amyloid nucleation score |
| --- | --- |
| DWTWMMS | inactive |
| SFSVSKAWGWMYSIQRCCLC | inactive |
| LRFRTDFSSASNK | 1.18 ± 0.081 |
| STLASSS | inactive |
| FDSLFYCGYTYHYQVARKFR | inactive |
| SWNRYTLRLSPSGFLVKVSL | inactive |
| ASEFKTSWWNV | -0.549 ± 0.68 |
| CAESFHIAASG | inactive |
| LLYMSECNELSIDRLVNLSK | inactive |
| TTPYWRRECRWSEFGFA | inactive |
| FSYCG | inactive |
| VIKALRMVCMGHWSYSVTLS | inactive |
| IPCMG | inactive |
| DCGKRSTTINFAWNGAVQPD | 1.04 ± 0.18 |
| SRVISLFSGVCRGLRGYVNR | inactive |
| VNGSV | inactive |
| RVEAPVMPKRRSIHQCSLKK | inactive |
| MVSMNSAAFLFRCHYCLGVR | inactive |
| TRFGRSANWLFFSAPTGRQN | inactive |
